Laboratory results taken from patent US20240240191, “RNA APTAMERS SPECIFIC FOR A-SYNUCLEIN PROTEIN FIBER CONFORMERS” (COMMISSARIAT A L'ENERGIE ATOMIQUE ET AUX ENERGIES …, published 2024).

Columns and labels:
[1] = target: T1, alpha-synuclein fibril, F-type conformer (fibrils) (UniProt P37840 P37840:1-140); assay: FP filter; nitrocellulose filter; retained much more than random sequence
[2] = target: T1, alpha-synuclein fibril, F-type …; assay: FP filter; nitrocellulose filter; 10 nM aptamer, 1 uM fibers, Ts1X, 37 C
[3] = target: T1, alpha-synuclein fibril, F-type …; assay: FP filter; nitrocellulose filter; Ts1X (10 mM HEPES pH 7.6, 150 mM NaCl, 5 mM KCl, 1.5 mM CaCl2, 1 mM MgCl2), 0.1% Igepal, ssDNA competitor, 37 C; Bmax 52.48 fmol; 3/3
[4] = target: alpha-synuclein fibril P110 (C-terminally truncated) (UniProt P37840 P37840:1-110); assay: FP filter; nitrocellulose filter; conditions: tags: fibril lacking the 30 C-terminal residues, chain copies: fibril (stated)
Procedure: (§1) The affinity of candidate aptamers as well as that of aptamers from the literature was also measured against different “amyloid” type fibers (Tau1N3R fibers and Aβ40 fibers), in addition to the conformers of F and R α-syn fiber. The affinity of the candidate aptamers against the α-Syn fiber “P110” was also measured. This fiber was made from α-Syn protein truncated from amino acid n° 110 (thus missing the 30 amino acids of the C-terminal domain). The oligonucleotides (aptamers) at 10 nM (hybridized by heat shock to SpG-LNA radioactively marked with P32 for RNA2′F chemistry oligonucleotides, or directly marked with P32 for DNA oligonucleotides) were presented to proteins at 250 nM in a solution of Ts1X containing Igepal at 0.1% and ssDNA added in a 5-1 proportion relative to the oligonucleotides (that is to say between 0.135 μg/ml and 17.325 μg/ml). After 30 min of incubation at 37° C., 25 μL of each mixture is deposited on the nitrocellulose membrane, then filtered. Two washes with Ts1X are then carried out. The amounts of oligonucleotides retained on the nitrocellulose membrane are quantified by exposing the membrane to a photostimulable phosphorus screen. The Kd and Bₘₐₓ were calculated by means of the Prism software using a non-linear regression model analyzing the (specific and non-specific) total affinity of a candidate for the target, assuming that there is only one binding site on the target for the candidate. The measurements were carried out in triplicate (three independent experiments on different days) for the F and R type α-Syn fibers, and in duplicate for the other fibers (Tau1N3R and the fibers Aβ40, and P110) as well as for α-Syn monomers.

amyloid-beta 40 fibril = amyloid-beta 40 fibril (UniProt P05067 P05067:672-711); assay: FP filter; nitrocellulose filter; conditions: tags: Abeta40 fibers, chain copies: fibril (stated)
amyloid-beta 40 fibril, sequence (P05067 672-711, one chain of several): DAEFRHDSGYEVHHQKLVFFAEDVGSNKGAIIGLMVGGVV
Procedure: as §1

[5] = target: T1, alpha-synuclein fibril, F-type …; assay: FP filter; nitrocellulose filter; not above random sequence
[6] = target: alpha-synuclein fibril, R-type conformer (ribbons) (UniProt P37840 P37840:1-140); assay: as above

B1: 4F05-G (ssRNA)
RNA: GGGAGAGUAUCCGUUGGAGGCAUGCCGCAGGCUACACCACAGCUUCCCCUUCAGCGUGUUGUGGAUACUCGGCAGAUCGGAAGAGCGUCGUGUAGGGCAUUGCCCCAGCGUGACUGCCUA
modifications: 2'-F on all pyrimidines
binding result [1]: binds

B2: N3-G (ssRNA)
RNA: GGGAGAGUAUCCGUUGAGGCUGACAACGCGUUUACCUCACACCACGUCAUCCGUUGCCAGAUCGGAAGAGCGUCGUGUAGGGCAUUGCCCCAGCGUGACUGCCUA
modifications: 2'-F on all pyrimidines
binding signal [2]: 3.5 fold over Scr2-G

B3: 4F02-G (ssRNA)
RNA: GGGAGAGUAUCCGUUGGAGGCAUGCUGGCAGCACGCACCGCUGACCGCUGGCUGCACUAUGCGUGUGGAGUGCAGAUCGGAAGAGCGUCGUGUAGGGCAUUGCCCCAGCGUGACUGCCUA
modifications: 2'-F on all pyrimidines
binding result [1]: binds

B4: N30-G (ssRNA)
RNA: GGGAGAGUAUCCGUUGAGGCUGAUCGAUCCACGUCCGACAACGCGUUUACUCGCCAUCAGAUCGGAAGAGCGUCGUGUAGGGCAUUGCCCCAGCGUGACUGCCUA
modifications: 2'-F on all pyrimidines
Kd [3]: 6.62 nM
binding result [4]: no binding
binding result (amyloid-beta 40 fibril): no binding

B5: Tau 3146 (ssDNA)
DNA: GCCTGTTGTGAGCCTCCTGTCGAACCTTTGGGGTGGCTTGACGAAGAAAGTAGTTGAGCGTTTATTCTTGTCTCCC
binding result [5]: no binding
binding result [6]: no binding

B6: 4F03-G (ssRNA)
RNA: GGGAGAGUAUCCGUUGGAGGCAUGCAACAGACGCACCGUACACACAUCUUGGCCGUUGGCUGCCCGACCAGCCAGAUCGGAAGAGCGUCGUGUAGGGCAUUGCCCCAGCGUGACUGCCUA
modifications: 2'-F on all pyrimidines
binding result [1]: binds

B7: N124-G (ssRNA)
RNA: GGGAGAGUAUCCGUUGAGGCUGAUCCGACCAUGCUUCAACUUAUACCUCGGGGACUGUAGAUCGGAAGAGCGUCGUGUAGGGCAUUGCCCCAGCGUGACUGCCUA
modifications: 2'-F on all pyrimidines
binding result [4]: no binding

B8: 4F01-G (ssRNA)
RNA: GGGAGAGUAUCCGUUGGAGGCAUAGCAGCACACGACCAGUGUGCCCCACACCCAGUGGUGGUCUGUGGUGUGCAGAUCGGAAGAGCGUCGUGUAGGGCAUUGCCCCAGCGUGACUGCCUA
modifications: 2'-F on all pyrimidines
binding result [1]: binds

B9: F5R2 (ssDNA)
DNA: ATCGAGTGGACGAGTGCCTCCGGTACGAGCTGTCTGATGGGTTTGCGCGCAGGATCCA
binding result ([4]; label: 32P): no binding
binding result (amyloid-beta 40 fibril; label: 32P): no binding

B10: F124-G (PF_124) (ssRNA)
RNA: GGGAGAGUAUCCGUUGGAGGCAUCACGGACACCUACCCGACGGCAUGUCAGGACACAUGUUGUGCUCCGUGUGAGAUCGGAAGAGCGUCGUGUAGGGCAUUGCCCCAGCGUGACUGCCUA
modifications: 2'-F on all pyrimidines
binding result [1]: binds

B11: P65-G (P65_10854) (ssRNA)
RNA: GGGAGAGUAUCCGUUGGAGGCAUCGCACAGUGUACACCUACACACAGCAUACCUGUUGGCAUCCCAGGUUGCCAGAUCGGAAGAGCGUCGUGUAGGGCAUUGCCCCAGCGUGACUGCCUA
modifications: 2'-F on all pyrimidines
binding result [1]: binds
